What was measured:
FLAG-APP = FLAG-APP (UniProt P05067)
FLAG-Alcalpha = system: T1, FLAG-Alcalpha
T1 sequence 1: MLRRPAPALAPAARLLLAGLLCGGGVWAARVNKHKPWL
T1 sequence 2: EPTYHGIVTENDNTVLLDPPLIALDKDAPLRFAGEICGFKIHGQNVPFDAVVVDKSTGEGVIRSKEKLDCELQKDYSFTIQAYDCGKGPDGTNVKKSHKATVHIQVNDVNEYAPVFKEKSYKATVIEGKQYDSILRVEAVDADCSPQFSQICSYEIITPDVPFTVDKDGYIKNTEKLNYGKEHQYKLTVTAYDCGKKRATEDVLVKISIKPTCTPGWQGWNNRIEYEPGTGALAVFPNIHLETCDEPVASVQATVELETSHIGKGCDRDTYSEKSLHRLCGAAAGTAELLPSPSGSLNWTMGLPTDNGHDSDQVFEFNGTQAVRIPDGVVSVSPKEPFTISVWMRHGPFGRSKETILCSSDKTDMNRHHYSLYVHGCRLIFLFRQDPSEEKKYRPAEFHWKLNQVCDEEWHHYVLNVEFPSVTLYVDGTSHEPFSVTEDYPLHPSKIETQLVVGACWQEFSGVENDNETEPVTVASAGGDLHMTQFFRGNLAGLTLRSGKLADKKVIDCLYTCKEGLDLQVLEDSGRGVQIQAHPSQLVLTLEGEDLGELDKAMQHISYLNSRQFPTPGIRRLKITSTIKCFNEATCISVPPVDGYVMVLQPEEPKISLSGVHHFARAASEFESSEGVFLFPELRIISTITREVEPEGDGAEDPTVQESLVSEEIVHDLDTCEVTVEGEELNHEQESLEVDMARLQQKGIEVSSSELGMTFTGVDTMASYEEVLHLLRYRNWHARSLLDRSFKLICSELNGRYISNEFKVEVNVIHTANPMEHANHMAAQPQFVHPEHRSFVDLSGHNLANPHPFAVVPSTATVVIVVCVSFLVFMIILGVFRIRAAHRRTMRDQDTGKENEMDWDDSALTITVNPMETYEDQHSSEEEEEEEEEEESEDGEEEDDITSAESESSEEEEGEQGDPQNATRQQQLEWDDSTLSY

FLAG-Alcbeta = system: T2, FLAG-Alcbeta
T2 sequence 1: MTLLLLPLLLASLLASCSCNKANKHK
T2 sequence 2: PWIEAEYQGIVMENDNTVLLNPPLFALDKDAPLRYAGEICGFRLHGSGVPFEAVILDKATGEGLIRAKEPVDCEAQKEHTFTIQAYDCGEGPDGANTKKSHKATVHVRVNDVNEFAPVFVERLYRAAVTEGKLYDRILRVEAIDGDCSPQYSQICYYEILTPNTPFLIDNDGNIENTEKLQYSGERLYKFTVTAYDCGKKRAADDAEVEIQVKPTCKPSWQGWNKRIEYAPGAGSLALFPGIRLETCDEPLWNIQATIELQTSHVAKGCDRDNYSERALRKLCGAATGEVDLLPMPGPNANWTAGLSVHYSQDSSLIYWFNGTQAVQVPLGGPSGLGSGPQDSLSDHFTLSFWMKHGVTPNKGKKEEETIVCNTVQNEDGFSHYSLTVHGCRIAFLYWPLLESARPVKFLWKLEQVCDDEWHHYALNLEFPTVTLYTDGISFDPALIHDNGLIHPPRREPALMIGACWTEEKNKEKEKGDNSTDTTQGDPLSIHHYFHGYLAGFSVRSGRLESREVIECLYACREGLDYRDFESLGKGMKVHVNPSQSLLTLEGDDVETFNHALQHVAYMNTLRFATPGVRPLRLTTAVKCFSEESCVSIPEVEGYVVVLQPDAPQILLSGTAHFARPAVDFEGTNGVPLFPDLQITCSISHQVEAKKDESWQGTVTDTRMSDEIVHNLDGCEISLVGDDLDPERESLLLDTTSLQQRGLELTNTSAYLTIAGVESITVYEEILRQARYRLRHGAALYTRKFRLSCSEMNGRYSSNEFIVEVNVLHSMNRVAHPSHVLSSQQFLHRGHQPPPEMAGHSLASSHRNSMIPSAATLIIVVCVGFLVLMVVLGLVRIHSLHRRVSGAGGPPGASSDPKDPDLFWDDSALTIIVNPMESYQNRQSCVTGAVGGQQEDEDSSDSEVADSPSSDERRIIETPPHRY

FLAG-Alcgamma = system: T3, FLAG-Alcgamma
T3 sequence 1: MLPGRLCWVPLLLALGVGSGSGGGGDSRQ
T3 sequence 2: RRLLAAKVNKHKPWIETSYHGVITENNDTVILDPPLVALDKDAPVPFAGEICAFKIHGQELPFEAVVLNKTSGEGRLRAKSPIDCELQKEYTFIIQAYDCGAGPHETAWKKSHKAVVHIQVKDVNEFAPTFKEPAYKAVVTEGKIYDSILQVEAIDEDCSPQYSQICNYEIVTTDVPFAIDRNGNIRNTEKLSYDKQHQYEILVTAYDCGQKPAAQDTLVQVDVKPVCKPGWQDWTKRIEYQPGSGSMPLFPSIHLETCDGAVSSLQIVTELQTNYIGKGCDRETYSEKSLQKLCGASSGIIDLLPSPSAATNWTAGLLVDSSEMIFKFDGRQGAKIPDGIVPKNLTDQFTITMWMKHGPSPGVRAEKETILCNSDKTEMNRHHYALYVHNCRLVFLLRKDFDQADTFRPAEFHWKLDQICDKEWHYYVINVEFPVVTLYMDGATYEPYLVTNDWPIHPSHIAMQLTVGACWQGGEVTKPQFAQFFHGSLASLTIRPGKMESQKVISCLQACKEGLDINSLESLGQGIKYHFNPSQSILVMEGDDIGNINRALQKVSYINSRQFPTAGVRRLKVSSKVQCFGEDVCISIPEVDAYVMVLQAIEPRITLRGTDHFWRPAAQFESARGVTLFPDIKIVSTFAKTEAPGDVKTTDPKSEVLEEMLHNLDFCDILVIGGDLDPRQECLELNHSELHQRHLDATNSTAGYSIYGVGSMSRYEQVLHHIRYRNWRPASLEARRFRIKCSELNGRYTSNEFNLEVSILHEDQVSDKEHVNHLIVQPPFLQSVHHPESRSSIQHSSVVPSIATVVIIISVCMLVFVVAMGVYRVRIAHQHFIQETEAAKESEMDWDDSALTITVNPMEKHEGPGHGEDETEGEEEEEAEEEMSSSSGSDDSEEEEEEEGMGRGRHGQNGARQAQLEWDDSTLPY

ADAM10-HA, sequence (O14672 whole entry): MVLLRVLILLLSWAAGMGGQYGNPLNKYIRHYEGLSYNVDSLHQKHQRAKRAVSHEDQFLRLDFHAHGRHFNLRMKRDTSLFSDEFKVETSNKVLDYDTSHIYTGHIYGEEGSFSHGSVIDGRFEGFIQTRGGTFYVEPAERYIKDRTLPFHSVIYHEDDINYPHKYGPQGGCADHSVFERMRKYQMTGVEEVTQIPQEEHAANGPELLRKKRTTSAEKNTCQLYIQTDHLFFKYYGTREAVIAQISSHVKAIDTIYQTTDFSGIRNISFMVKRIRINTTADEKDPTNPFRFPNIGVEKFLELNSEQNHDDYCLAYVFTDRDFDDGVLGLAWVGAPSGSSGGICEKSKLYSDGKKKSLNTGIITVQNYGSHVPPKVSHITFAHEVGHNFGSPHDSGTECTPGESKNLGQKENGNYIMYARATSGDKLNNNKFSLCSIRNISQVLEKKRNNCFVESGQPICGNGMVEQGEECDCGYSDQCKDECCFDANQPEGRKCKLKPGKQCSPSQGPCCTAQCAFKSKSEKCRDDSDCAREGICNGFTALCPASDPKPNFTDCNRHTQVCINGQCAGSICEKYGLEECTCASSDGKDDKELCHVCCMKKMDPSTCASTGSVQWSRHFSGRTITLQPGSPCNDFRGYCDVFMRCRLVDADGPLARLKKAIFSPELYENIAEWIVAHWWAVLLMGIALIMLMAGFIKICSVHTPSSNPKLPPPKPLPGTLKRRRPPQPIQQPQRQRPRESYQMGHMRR
FLAG-APP, sequence (P05067 whole entry, looked up): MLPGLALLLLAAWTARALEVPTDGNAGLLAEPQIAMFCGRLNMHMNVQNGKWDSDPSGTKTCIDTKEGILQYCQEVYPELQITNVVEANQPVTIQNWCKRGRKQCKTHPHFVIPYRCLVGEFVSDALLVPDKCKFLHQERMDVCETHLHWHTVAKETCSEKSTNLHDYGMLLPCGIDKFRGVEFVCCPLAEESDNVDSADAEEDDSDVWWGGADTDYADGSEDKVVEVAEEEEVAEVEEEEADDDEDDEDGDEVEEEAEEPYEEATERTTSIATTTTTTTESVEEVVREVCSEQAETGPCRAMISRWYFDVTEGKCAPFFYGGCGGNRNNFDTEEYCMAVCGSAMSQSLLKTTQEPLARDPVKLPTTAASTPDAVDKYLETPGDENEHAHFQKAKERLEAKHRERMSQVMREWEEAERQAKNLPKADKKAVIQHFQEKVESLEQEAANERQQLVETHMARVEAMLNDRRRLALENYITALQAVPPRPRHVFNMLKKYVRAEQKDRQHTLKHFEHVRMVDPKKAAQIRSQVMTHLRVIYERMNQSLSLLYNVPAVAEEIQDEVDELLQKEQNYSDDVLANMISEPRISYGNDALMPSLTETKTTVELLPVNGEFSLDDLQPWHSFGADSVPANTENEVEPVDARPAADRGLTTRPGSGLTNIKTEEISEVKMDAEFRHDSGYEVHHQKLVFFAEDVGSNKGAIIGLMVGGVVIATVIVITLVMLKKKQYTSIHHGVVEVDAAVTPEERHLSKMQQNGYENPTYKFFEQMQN

## ADAM10-HA
FLAG-APP
  amount of sAPP secreted by ADAM (-/-) MEFs with exogenous ADAM10 against without: about 1.7 fold over that of sAPP secreted by ADAM (-/-) MEFs
FLAG-Alcalpha
  amount of sAlcalpha secreted by ADAM (-/-) MEFs with exogenous ADAM10: The amounts of sAlcalpha, sAlcbeta, and sAlcgamma secreted by ADAM (-/-) MEFs were restored in response to the expression of exogenous ADAM10
FLAG-Alcbeta
  amount of sAlcbeta secreted by ADAM (-/-) MEFs with exogenous ADAM10: The amounts of sAlcalpha, sAlcbeta, and sAlcgamma secreted by ADAM (-/-) MEFs were restored in response to the expression of exogenous ADAM10
FLAG-Alcgamma
  amount of sAlcgamma secreted by ADAM (-/-) MEFs with exogenous ADAM10: The amounts of sAlcalpha, sAlcbeta, and sAlcgamma secreted by ADAM (-/-) MEFs were restored in response to the expression of exogenous ADAM10
